The record followed here is patent publication US20160159879A1 (UNIVERSITY OF NORTH CAROLINA AT CHAPEL HILL, published 2016).

For data set [1], the target named is yfp-tagged αENaC stably expressed in JME nasal epithelial cells. Put plainly: fluorescence binding isotherm on polarized JME cells expressing yfp-αENaC, 30 min, empty-vector cells as non-specific binding, Hill fit.
Data set [2] deals with ENaC endogenous to primary human bronchial epithelial cultures (human) (UniProt P37088). Kind of data set: cell-based or functional assay.
In data set [3] the target is αβγENaC expressed in Xenopus laevis oocytes (rat) (UniProt P37089). Put plainly: cell-based or functional assay.
Chain of αβγENaC expressed in Xenopus laevis oocytes (rat) (P37089 whole entry, chain 1 of 3): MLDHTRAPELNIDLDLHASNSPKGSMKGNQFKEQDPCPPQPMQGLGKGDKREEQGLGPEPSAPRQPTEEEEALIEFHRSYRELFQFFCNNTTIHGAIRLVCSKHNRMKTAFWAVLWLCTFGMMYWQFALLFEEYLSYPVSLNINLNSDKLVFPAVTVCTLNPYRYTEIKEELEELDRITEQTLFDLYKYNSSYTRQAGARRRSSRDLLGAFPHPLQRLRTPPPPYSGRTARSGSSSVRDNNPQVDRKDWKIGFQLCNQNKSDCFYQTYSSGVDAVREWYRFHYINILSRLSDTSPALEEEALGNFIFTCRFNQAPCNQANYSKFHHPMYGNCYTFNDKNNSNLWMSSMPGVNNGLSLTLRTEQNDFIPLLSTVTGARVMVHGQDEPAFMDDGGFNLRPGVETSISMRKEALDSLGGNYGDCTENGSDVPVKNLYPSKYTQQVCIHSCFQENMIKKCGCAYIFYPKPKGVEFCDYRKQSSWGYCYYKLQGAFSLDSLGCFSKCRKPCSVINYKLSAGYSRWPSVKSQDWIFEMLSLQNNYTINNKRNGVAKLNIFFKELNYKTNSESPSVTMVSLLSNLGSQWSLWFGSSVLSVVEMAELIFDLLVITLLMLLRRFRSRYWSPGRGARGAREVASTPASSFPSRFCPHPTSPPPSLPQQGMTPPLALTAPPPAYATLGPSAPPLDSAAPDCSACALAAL
Chain of αβγENaC expressed in Xenopus laevis oocytes (rat) (P37090 whole entry, chain 2 of 3, further chain): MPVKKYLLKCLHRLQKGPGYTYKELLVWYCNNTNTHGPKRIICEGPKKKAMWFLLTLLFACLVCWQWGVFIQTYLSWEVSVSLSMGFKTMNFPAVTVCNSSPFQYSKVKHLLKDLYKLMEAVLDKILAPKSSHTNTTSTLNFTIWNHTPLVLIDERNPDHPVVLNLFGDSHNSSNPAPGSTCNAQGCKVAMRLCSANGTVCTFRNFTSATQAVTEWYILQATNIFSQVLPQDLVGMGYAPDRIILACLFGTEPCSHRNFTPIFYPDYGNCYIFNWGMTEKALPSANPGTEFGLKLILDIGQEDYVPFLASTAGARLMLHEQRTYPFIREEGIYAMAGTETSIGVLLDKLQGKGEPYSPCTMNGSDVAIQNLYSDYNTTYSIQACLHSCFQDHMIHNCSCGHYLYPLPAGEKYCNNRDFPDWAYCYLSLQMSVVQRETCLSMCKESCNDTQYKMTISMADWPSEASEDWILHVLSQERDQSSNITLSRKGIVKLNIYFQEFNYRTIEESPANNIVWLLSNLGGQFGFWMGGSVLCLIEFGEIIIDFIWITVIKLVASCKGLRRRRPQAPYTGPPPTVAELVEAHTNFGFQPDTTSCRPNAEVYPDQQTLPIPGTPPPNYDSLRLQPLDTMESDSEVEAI
Chain of αβγENaC expressed in Xenopus laevis oocytes (rat) (P37091 whole entry, chain 3 of 3, further chain): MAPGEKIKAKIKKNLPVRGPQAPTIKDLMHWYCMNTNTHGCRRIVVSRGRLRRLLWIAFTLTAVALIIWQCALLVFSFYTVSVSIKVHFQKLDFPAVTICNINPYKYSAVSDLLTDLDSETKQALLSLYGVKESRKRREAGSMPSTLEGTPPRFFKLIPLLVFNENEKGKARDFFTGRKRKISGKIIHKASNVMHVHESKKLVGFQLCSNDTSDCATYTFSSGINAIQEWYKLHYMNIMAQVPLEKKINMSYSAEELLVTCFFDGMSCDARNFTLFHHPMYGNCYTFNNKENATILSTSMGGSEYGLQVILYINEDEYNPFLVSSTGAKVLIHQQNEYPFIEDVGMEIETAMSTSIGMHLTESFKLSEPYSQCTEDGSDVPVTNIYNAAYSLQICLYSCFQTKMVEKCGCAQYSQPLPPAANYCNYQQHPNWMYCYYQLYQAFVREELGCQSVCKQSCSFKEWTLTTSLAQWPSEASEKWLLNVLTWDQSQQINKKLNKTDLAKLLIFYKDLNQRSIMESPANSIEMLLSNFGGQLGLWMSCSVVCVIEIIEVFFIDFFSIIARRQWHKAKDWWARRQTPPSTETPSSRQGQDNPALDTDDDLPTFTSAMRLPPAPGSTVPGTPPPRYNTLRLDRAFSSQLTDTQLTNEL
Data set [4] relates to T1, Recombinant V5/6His-tagged SPLUNC1 purified from HEK293 media.
T1 sequence: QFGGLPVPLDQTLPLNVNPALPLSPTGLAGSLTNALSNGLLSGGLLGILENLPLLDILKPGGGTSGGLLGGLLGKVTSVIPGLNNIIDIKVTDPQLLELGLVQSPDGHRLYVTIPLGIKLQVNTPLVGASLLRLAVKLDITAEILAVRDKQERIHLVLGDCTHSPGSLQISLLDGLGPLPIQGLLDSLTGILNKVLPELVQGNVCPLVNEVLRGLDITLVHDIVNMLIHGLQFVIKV

For data set [5], the target named is T2, Human βENaC subunit, HA (N-terminus) and V5 (C-terminus) tagged, expressed in HEK293T cells (human, UniProt P51168 1-640, glycosylated (EndoH and tunicamycin experiments)).
T2 sequence (looked up): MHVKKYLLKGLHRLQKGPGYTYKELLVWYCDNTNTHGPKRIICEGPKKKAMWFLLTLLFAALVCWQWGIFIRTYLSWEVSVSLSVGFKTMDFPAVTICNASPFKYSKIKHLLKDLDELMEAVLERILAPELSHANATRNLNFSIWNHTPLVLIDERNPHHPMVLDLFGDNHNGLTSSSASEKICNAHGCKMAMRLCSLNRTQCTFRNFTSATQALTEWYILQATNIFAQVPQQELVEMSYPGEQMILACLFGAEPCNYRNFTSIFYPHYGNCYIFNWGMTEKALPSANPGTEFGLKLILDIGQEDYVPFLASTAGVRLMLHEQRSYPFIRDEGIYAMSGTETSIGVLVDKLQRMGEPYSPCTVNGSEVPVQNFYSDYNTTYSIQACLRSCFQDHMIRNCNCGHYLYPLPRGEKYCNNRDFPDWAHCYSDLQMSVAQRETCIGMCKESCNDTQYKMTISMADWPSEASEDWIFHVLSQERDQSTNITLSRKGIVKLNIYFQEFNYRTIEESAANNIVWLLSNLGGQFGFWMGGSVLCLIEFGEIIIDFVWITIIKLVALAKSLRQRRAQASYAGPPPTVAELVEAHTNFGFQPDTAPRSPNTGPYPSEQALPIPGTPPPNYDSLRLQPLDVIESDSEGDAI
Kind of data set: peptide pull-down on neutravidin beads, Western blot with anti-V5. For orientation: In western blotting, separated proteins are transferred to a membrane and probed.

For data set [6], the target named is αβγENaC expressed in Xenopus laevis oocytes (rat, UniProt P37089 1-698; P37090 1-638; P37091 1-650). Kind of data set: cell-based or functional assay.
Chain of αβγENaC expressed in Xenopus laevis oocytes (P37089 whole entry, chain 1 of 3): as the sequence (P37089 whole entry, chain 1 of 3) above
Chain of αβγENaC expressed in Xenopus laevis oocytes (P37090 whole entry, chain 2 of 3): as the sequence (P37090 whole entry, chain 2 of 3, further chain) above
Chain of αβγENaC expressed in Xenopus laevis oocytes (P37091 whole entry, chain 3 of 3): as the sequence (P37091 whole entry, chain 3 of 3, further chain) above
Data set [7] addresses T3, Human γENaC subunit, HA (N-terminus) and V5 (C-terminus) tagged, expressed alone in HEK293T cells (human, UniProt P51170 1-649).
T3 sequence (looked up): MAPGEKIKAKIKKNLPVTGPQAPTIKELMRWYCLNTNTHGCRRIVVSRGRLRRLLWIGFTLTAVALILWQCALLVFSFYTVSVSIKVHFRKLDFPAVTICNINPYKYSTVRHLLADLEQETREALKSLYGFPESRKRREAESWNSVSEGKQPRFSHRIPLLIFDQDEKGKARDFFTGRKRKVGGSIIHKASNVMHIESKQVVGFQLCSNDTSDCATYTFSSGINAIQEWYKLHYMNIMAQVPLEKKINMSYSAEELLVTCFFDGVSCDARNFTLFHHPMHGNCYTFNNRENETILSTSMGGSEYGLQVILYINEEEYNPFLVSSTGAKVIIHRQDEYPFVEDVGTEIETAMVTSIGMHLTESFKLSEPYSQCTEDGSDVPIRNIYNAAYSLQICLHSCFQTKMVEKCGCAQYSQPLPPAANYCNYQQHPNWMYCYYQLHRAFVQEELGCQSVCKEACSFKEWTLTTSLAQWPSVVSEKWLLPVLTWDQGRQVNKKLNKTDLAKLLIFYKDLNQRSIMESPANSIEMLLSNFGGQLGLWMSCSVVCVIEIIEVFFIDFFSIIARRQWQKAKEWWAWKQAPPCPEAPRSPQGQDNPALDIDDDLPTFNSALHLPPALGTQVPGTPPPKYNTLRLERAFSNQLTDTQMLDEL
Put plainly: pull-down with biotinylated S18 of subunits expressed individually in HEK cells, Western blot.

Data set [8] has as its target T4, Human αENaC subunit, HA (N-terminus) and V5 (C-terminus) tagged, expressed alone in HEK293T cells (human, UniProt P37088 1-669).
T4 sequence (looked up): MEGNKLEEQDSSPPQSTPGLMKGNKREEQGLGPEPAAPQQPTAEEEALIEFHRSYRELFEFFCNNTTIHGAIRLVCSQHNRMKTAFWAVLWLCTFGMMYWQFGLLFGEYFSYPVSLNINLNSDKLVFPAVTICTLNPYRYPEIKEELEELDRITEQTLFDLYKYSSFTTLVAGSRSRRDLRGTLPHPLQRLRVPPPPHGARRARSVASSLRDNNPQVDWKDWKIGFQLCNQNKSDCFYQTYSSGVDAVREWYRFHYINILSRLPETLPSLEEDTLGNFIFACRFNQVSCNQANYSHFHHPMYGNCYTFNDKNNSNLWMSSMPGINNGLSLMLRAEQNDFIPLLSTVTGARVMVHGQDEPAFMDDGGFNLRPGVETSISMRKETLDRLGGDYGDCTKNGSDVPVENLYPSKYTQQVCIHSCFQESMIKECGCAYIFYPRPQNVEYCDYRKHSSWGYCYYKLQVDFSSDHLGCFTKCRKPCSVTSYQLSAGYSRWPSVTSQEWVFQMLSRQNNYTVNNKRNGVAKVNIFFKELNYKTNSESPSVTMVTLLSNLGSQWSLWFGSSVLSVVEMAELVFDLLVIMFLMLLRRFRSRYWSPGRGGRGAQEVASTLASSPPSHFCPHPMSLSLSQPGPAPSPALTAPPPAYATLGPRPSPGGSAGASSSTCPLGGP
The description is as above.

Data set [9] has as its target ENaC endogenous to primary human bronchial epithelial cultures (human, UniProt P37088 1-669; P51168 1-640; P51170 1-649). Put plainly: cell-based or functional assay.

Ends that are not written are not given here. * marks the point of attachment. Biotin = O=C1N[C@H]2[C@H](CS[C@H]2CCCCC(=O)*)N1

Regarding “Texas red-labeled recombinant SPLUNC1 (from UniProt Q9NP55 20-256)”, the Kd in data set [1] stood at 0.055 µg/mL.
“Recombinant V5/6His-tagged SPLUNC1 purified from HEK293 media (from UniProt Q9NP55 20-256)” came in with a transepithelial electrical resistance in data set [2] of 33%. Moreover, the decrease in ENaC currents (amiloride-sensitive), two electrode voltage clamp in oocytes in data set [3] is 70%.
Turning to Trypsin, the “cleavage of the fluorogenic substrate BGAR-MCA by 1.0 or 0.3 U/ml trypsin” value in data set [4] was 50 ng/ml rSPLUNC1 had only a modest affect (˜10%) on the ability of either 1.0 or 0.3 U/ml trypsin to cleave a fluorogenic substrate.
For Biotin-ADGGLLLLNNPPPPQTVV (also called ADG) [Control peptide ABC (alphabetized G22-A39), biotinylated], the binding result in data set [5] is recorded as “no binding”.

B1: V5-tagged SPLUNC1 expressed in Xenopus oocytes from injected cRNA (other, not shown: small tags and cut ends)
chain: T1 sequence
B1: in data set [6], the “decrease in amiloride-sensitive current relative to control oocytes” value is about 70%.
Take Biotin-GGLPVPLDQTLPLNVNPA (also called G22-A39) [Biotinylated S18 peptide]: the binding result in [7] and in data set [8] was “no binding” in each case.
Turning to GGLPVPLDQTLPLNVNPA [S18 peptide (amino acids 22-39 of human SPLUNC1)], the “IC50, dose response of ASL height in CF HBECs 8 h post-S18 addition” value in data set [9] was determined as 600 nM.

As a reminder, the Kd is a measure of binding affinity in units of concentration.
